The values that follow come from patent US20210024651A1 (published 2021).

For one assay, the target named is T1, rat HER3 (rat, UniProt Q62799 20-643, limits assumed).
T1 construct: also called rat homologue of HER3; R. norvegicus HER3
Briefly: ELISA, plate-coated target, antibody titrated from 10 µg/ml.

A further assay deals with T2, mouse HER3 (mouse, UniProt Q61526 20-641, limits assumed).
T2 construct: also called mouse homologue of HER3; M. musculus HER3
The assay is described as above.

In assay [1] the target is T3, His-tagged FcγRIIIa (V158) (UniProt P08637 17-208).
T3 construct: not shown: His tag
The assay can be described thus: BLI, His-tagged FcγRIIIa (V158) captured on HIS1K tips, antibody in solution. Here is the method:
Briefly, anti-Penta-HIS (HIS1K) coated biosensor tips (Pall ForteBio, USA) were used to capture His-tagged FcγRIIIa (V158) (270 nM) for 120 s. All measurements were performed at 25° C. with agitation at 1000 rpm. Association kinetic measurements for antigen binding were performed by incubating anti-HER3 antibodies at different concentrations (500 nM to 15.6 nM) for 60 s, followed by a 120 s dissociation time by transferring the biosensors into assay buffer (pH 7.2) containing wells. Sensograms were referenced for buffer effects and then fitted using the Octet QK384 user software (Pall ForteBio, USA). Kinetic responses were subjected to a global fitting using a one site binding model to obtain values for association (Kₒₙ), dissociation (Koff) rate constants and the equilibrium dissociation constant (KD). Only curves that could be reliably fitted with the software (R²>0.90) were included in the analysis.

T1 sequence (Q62799 20-643 limits assumed): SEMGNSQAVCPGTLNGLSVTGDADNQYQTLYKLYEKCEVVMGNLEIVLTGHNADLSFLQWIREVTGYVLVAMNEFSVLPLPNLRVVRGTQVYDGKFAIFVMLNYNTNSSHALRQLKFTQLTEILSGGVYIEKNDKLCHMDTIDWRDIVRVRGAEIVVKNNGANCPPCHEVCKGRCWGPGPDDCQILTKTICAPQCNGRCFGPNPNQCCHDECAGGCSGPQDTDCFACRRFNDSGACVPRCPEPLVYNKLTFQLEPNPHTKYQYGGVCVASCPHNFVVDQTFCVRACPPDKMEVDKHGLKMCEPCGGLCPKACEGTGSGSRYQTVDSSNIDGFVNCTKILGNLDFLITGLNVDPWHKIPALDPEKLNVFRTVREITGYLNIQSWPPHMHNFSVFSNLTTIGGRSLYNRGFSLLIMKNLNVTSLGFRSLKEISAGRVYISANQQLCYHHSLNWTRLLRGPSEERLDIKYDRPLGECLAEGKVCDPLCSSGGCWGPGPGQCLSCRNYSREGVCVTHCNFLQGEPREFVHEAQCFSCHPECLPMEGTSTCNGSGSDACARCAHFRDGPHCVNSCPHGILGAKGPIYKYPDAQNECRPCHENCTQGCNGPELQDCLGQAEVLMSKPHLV
T2 sequence (Q61526 20-641 limits assumed): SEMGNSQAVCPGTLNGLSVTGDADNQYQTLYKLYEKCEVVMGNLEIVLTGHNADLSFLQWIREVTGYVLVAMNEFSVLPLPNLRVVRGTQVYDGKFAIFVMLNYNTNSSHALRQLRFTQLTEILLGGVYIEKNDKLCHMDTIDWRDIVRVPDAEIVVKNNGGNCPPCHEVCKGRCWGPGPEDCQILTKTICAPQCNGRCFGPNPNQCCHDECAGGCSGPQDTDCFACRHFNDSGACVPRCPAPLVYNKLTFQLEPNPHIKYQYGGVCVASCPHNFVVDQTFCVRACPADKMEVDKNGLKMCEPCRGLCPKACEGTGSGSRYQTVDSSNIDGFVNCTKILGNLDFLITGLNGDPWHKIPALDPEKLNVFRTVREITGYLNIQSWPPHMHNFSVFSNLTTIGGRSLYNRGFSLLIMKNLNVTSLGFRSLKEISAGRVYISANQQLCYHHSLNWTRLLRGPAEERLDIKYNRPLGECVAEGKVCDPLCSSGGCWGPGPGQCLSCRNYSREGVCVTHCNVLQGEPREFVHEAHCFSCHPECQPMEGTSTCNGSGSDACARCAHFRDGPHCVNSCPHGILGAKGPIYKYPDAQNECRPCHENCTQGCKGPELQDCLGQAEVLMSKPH

B1: 10D1F.FcA (anti-HER3 clone 10D1_c89 IgG1) (antibody, V domains shown)
VH: QVQLQESGPGLVKPSQTLSLTCTVSGYSITSGYSWHWIRQHPGKGLEWIGSIRYSGGTDYNPSLKSLVTISADTSKNQFSLKLSSVTAADTAVYYCARMTTAPWYPFDYWGQGTTVTVSS
VL: DIQMTQSPSSVSASVGDRVTITCKASQIVGSNVAWYQQKPGKAPEPLIYSASYLYSGVPSRFSGSGSGTDFTLTISSLQPEDFATYYCQQYSSHPLTFGQGTKLEIKR
notes: also called 10D1F.A
Regarding B1, the binding result with rat HER3 and in the assay with mouse HER3 was “binds” each time.

B2: Fc-modified anti-HER3 antibody clone 10D1 comprising GASD substitutions in CH2 region (antibody, human IgG1, kappa)
heavy: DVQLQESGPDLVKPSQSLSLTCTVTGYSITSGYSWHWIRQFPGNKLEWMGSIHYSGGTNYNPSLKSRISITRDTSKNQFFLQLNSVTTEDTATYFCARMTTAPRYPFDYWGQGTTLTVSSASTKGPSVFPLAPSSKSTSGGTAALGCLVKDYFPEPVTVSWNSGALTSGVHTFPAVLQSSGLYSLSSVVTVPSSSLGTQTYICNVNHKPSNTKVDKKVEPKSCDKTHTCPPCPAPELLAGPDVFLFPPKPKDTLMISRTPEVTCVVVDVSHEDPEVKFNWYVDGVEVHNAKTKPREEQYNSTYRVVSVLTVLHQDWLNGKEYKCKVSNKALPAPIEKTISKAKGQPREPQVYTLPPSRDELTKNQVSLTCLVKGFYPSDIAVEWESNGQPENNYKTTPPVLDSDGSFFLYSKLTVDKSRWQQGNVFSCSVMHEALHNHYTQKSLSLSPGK
light: DIVMTQSQKFMSTSVGDRVSVTCKASQIVGSNVAWYQQKPGQSPKPLIYSASYRYSGVPDRFTASGSGTDFTLTITNVQSEDLAEYFCQQYSSHPLTFGAGTKLELKRTVAAPSVFIFPPSDEQLKSGTASVVCLLNNFYPREAKVQWKVDNALQSGNSQESVTEQDSKDSTYSLSSTLTLSKADYEKHKVYACEVTHQGLSSPVTKSFNRGEC
notes: also called 10D1 GASD variant
As to B2, in assay [1], the binding result was “binds”.

B3: anti-HER3 clone 10D1 IgG1 (antibody)
heavy: not shown
light: B2 light
notes: Mouse variable regions on human IgG1/kappa constant regions (chimeric); also called 10D1P; 10D1 (parental)
With B3, the binding result (in assay [1]; in the assay with rat HER3; with mouse HER3) was “binds” in each case.
